Assay: in vivo
Set-up: species or system mice
Conditions: male, NODSCID 1L2RγKO, mouse, iv, total radioactivity

## COc1ccc(CCCC(=O)NCC(=O)N[C@@H](CCCCNC(=O)CN2CCN(CC(=O)O)CCN(CC(=O)O)CCN(CC(=O)O)CC2)C(=O)NC[C@H]2CC[C@H](C(=O)N[C@@H](Cc3c4ccccc4cc4ccccc34)C(=O)NCCCC[C@H](NC(=O)N[C@@H](CSCC(=O)O)C(=O)O)C(=O)O)CC2)cc1 [177Lu-HTK04048, metal not drawn]
Adrenal glands uptake
  tissue uptake at 1 h: 3.95 ± 0.34 %ID/g
  tissue uptake at 4 h: 2.1 ± 0.22 %ID/g
  tissue uptake at 24 h: 0.49 ± 0.04 %ID/g
  tissue uptake at 72 h: 0.34 ± 0.03 %ID/g
  tissue uptake at 120 h: 0.37 ± 0.09 %ID/g
Blood uptake
  tissue uptake at 1 h: 17.7 ± 2.05 %ID/g
  tissue uptake at 4 h: 12.3 ± 1.56 %ID/g
  tissue uptake at 24 h: 0.68 ± 0.11 %ID/g
  tissue uptake at 72 h: 0.12 ± 0.01 %ID/g
  tissue uptake at 120 h: 0.05 ± 0.02 %ID/g
Bone uptake
  tissue uptake at 1 h: 1.04 ± 0.2 %ID/g
  tissue uptake at 4 h: 0.74 ± 0.09 %ID/g
  tissue uptake at 24 h: 0.11 ± 0.02 %ID/g
  tissue uptake at 72 h: 0.07 ± 0.01 %ID/g
  tissue uptake at 120 h: 0.07 ± 0.01 %ID/g
Brain uptake
  tissue uptake at 1 h: 0.31 ± 0.02 %ID/g
  tissue uptake at 4 h: 0.18 ± 0.02 %ID/g
  tissue uptake at 24 h: 0.03 %ID/g
  tissue uptake at 72 h: 0.01 %ID/g
  tissue uptake at 120 h: 0.01 %ID/g
Fat uptake
  tissue uptake at 1 h: 1.32 ± 0.17 %ID/g
  tissue uptake at 4 h: 1 ± 0.13 %ID/g
  tissue uptake at 24 h: 0.15 ± 0.06 %ID/g
  tissue uptake at 72 h: 0.08 ± 0.03 %ID/g
  tissue uptake at 120 h: 0.06 ± 0.03 %ID/g
Heart uptake
  tissue uptake at 1 h: 4.41 ± 0.22 %ID/g
  tissue uptake at 4 h: 2.99 ± 0.36 %ID/g
  tissue uptake at 24 h: 0.36 ± 0.04 %ID/g
  tissue uptake at 72 h: 0.16 ± 0.01 %ID/g
  tissue uptake at 120 h: 0.1 ± 0.02 %ID/g
Intestine uptake
  tissue uptake at 1 h: 1.26 ± 0.2 %ID/g
  tissue uptake at 4 h: 1.03 ± 0.1 %ID/g
  tissue uptake at 24 h: 0.49 ± 0.41 %ID/g
  tissue uptake at 72 h: 0.15 ± 0.09 %ID/g
  tissue uptake at 120 h: 0.05 ± 0.02 %ID/g
Kidneys uptake
  tissue uptake at 1 h: 14.5 ± 3.33 %ID/g
  tissue uptake at 4 h: 12.4 ± 1.36 %ID/g
  tissue uptake at 24 h: 5.06 ± 0.91 %ID/g
  tissue uptake at 72 h: 2.28 ± 0.24 %ID/g
  tissue uptake at 120 h: 1.69 ± 0.58 %ID/g
Lacrimal uptake
  tissue uptake at 1 h: 0.5 ± 0.05 %ID/g
  tissue uptake at 4 h: 0.32 ± 0.13 %ID/g
  tissue uptake at 24 h: 0.05 ± 0.01 %ID/g
  tissue uptake at 72 h: 0.01 ± 0.01 %ID/g
  tissue uptake at 120 h: 0.01 ± 0.01 %ID/g
Liver uptake
  tissue uptake at 1 h: 3.95 ± 0.83 %ID/g
  tissue uptake at 4 h: 2.16 ± 0.17 %ID/g
  tissue uptake at 24 h: 0.45 ± 0.04 %ID/g
  tissue uptake at 72 h: 0.26 ± 0.01 %ID/g
  tissue uptake at 120 h: 0.22 ± 0.08 %ID/g
Lungs uptake
  tissue uptake at 1 h: 9.01 ± 0.91 %ID/g
  tissue uptake at 4 h: 6.35 ± 0.78 %ID/g
  tissue uptake at 24 h: 1.09 ± 0.33 %ID/g
  tissue uptake at 72 h: 0.29 ± 0.05 %ID/g
  tissue uptake at 120 h: 0.15 ± 0.05 %ID/g
Muscle uptake
  tissue uptake at 1 h: 1.42 ± 0.11 %ID/g
  tissue uptake at 4 h: 1 ± 0.1 %ID/g
  tissue uptake at 24 h: 0.11 ± 0.01 %ID/g
  tissue uptake at 72 h: 0.04 ± 0.01 %ID/g
  tissue uptake at 120 h: 0.05 ± 0.05 %ID/g
Pancreas uptake
  tissue uptake at 1 h: 1.7 ± 0.17 %ID/g
  tissue uptake at 4 h: 1.21 ± 0.14 %ID/g
  tissue uptake at 24 h: 0.17 ± 0.03 %ID/g
  tissue uptake at 72 h: 0.07 ± 0.01 %ID/g
  tissue uptake at 120 h: 0.04 ± 0.01 %ID/g
Salivary uptake
  tissue uptake at 1 h: 2.7 ± 0.29 %ID/g
  tissue uptake at 4 h: 2.01 ± 0.17 %ID/g
  tissue uptake at 24 h: 0.42 ± 0.07 %ID/g
  tissue uptake at 72 h: 0.2 ± 0.03 %ID/g
  tissue uptake at 120 h: 0.14 ± 0.02 %ID/g
Seminal uptake
  tissue uptake at 1 h: 1.14 ± 0.17 %ID/g
  tissue uptake at 4 h: 0.92 ± 0.2 %ID/g
  tissue uptake at 24 h: 0.11 ± 0.03 %ID/g
  tissue uptake at 72 h: 0.06 ± 0.01 %ID/g
  tissue uptake at 120 h: 0.04 ± 0.01 %ID/g
Spleen uptake
  tissue uptake at 1 h: 2.54 ± 0.6 %ID/g
  tissue uptake at 4 h: 2.1 ± 0.39 %ID/g
  tissue uptake at 24 h: 0.6 ± 0.05 %ID/g
  tissue uptake at 72 h: 0.62 ± 0.14 %ID/g
  tissue uptake at 120 h: 0.92 ± 0.3 %ID/g
Stomach uptake
  tissue uptake at 1 h: 0.74 ± 0.14 %ID/g
  tissue uptake at 4 h: 0.81 ± 0.04 %ID/g
  tissue uptake at 24 h: 0.89 ± 0.84 %ID/g
  tissue uptake at 72 h: 0.23 ± 0.16 %ID/g
  tissue uptake at 120 h: 0.03 ± 0.01 %ID/g
Tail uptake
  tissue uptake at 1 h: 3.57 ± 0.35 %ID/g
  tissue uptake at 4 h: 2.72 ± 0.61 %ID/g
  tissue uptake at 24 h: 0.4 ± 0.17 %ID/g
  tissue uptake at 72 h: 0.15 ± 0.03 %ID/g
  tissue uptake at 120 h: 0.19 ± 0.13 %ID/g
Testes uptake
  tissue uptake at 1 h: 2.25 ± 0.3 %ID/g
  tissue uptake at 4 h: 2.68 ± 0.16 %ID/g
  tissue uptake at 24 h: 0.73 ± 0.32 %ID/g
  tissue uptake at 72 h: 0.34 ± 0.03 %ID/g
  tissue uptake at 120 h: 0.26 ± 0.04 %ID/g
Thyroid uptake
  tissue uptake at 1 h: 3.79 ± 0.23 %ID/g
  tissue uptake at 4 h: 2.69 ± 0.26 %ID/g
  tissue uptake at 24 h: 0.55 ± 0.07 %ID/g
  tissue uptake at 72 h: 0.31 ± 0.04 %ID/g
  tissue uptake at 120 h: 0.19 ± 0.01 %ID/g
Tumor uptake
  tissue uptake at 1 h: 15.6 ± 2.98 %ID/g
  tissue uptake at 4 h: 46.5 ± 28.4 %ID/g
  tissue uptake at 24 h: 54.3 ± 10.6 %ID/g
  tissue uptake at 72 h: 66.3 ± 18.7 %ID/g
  tissue uptake at 120 h: 74 ± 35.5 %ID/g

From patent US11504441B2, “Radiolabeled compounds targeting the prostate-specific membrane antigen” (PROVINCIAL HEALTH SERVICES AUTHORITY, priority 2019, dated 2022)
